Source: patent US20210253718A1, “FRIZZLED5 PROTEIN-BINDING AGENTS” (Modmab Therapeutics Corporation, priority 2016, published 2021)

Key:
[1] = target: T1, FZD1 CRD (Homo sapiens, UniProt Q9UP38); test: Flow cytometry of anti-FZD5 Fab binding to CHO cells overexpressing Frizzled CRD
T1 construct: D112-P238; GPI anchor signal (C); expressed in transfected cells; host or cells: CHO cells, lentiviral pLenti-puro
Summary of the method: (§1)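 CHO lines each expressing a different human Frizzled CRD, myc-tagged and GPI-anchored at the surface, stained with 200 nM Fab, then Alexa Fluor 488 F(ab′)2 secondary. Dead cells excluded by viability dye; anti-c-Myc staining served as expression control. Binding read by flow cytometry.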

[2] = target: T2, FZD2 CRD (Homo sapiens, UniProt Q14332); test: as above
T2 construct: D35-P161; GPI anchor signal (C); expressed in transfected cells; host or cells: CHO cells, lentiviral pLenti-puro
Summary of the method: as §1

[3] = target: T3, FZD8 CRD (Homo sapiens, UniProt Q9H461); test: as above
T3 construct: K31-D155; GPI anchor signal (C); expressed in transfected cells; host or cells: CHO cells, lentiviral pLenti-puro
T3 sequence (Q9H461 31-155): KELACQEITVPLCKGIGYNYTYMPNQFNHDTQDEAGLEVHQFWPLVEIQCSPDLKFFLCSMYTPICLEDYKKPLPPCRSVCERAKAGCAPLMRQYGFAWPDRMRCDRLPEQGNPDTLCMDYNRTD
Summary of the method: as §1

[4] = target: T4, FZD3 CRD (Homo sapiens, UniProt Q9NPG1); test: Immunofluorescence of anti-FZD5 Fab binding to CHO cells overexpressing Frizzled CRD; design: key: −: no binding; +: very weak binder; ++: weak binder; +++: good binder; ++++: very good binder
T4 construct: CRD of FZD1, FZD2, FZD3, FZD4, FZD5, FZD6, FZD7, FZD8, FZD9 or FZD10; GPI anchor signal (C); expressed in transfected cells; host or cells: CHO cells, lentiviral pLenti-puro
T4 sequence (Q9NPG1 23-136 limits assumed): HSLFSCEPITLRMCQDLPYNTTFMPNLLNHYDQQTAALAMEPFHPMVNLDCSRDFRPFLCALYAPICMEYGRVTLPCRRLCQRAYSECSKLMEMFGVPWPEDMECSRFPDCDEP
Summary of the method: (§2)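 CHO lines each stably expressing one human Frizzled CRD as a myc-tagged, GPI-anchored cell-surface cassette (FZD_CRD-MYC-GPI, lentiviral pLenti-puro) were probed with anti-FZD5 Fabs. Binding was read by immunofluorescence, alongside flow cytometry, across the 10-member panel.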

[5] = target: T5, FZD7 CRD (Homo sapiens, UniProt O75084); test: as above; design: key: −: no binding; +: very weak binder; ++: weak binder; +++: good binder; ++++: very good binder
T5 construct: D45-S169; GPI anchor signal (C); expressed in transfected cells; host or cells: CHO cells, lentiviral pLenti-puro
Summary of the method: as §2

[6] = target: T3, FZD8 CRD; test: as above; design: key: −: no binding; +: very weak binder; ++: weak binder; +++: good binder; ++++: very good binder
Summary of the method: as §2

[7] = test system: ASPC-1 cells; test: Effect of anti-FZD5 Fabs on proliferation of pancreatic cancer cell lines (percent growth inhibition); assay type: cell-based, human; conditions: Fab 10 μg/ml
Experimental: (§3) The effect of presently disclosed anti-FZD5 Fabs on proliferation of RNF43 loss-of-function mutant pancreatic cancer cell lines HPAFII, PATU8988S and ASPC-1; and on pancreatic cancer cell line RWP1, was tested at […] and 10 μg/ml.

[8] = test system: HPAFII cells; test: as above; assay type: cell-based, human; conditions: for percent growth inhibition, HPAFII 2 μg/ml: Fab 2 μg/ml; for percent growth inhibition, HPAFII 10 μg/ml: Fab 10 μg/ml
Experimental: as §3

[9] = test system: PATU8988S cells; test: as above; assay type: cell-based, human; conditions: Fab 10 μg/ml
Experimental: as §3

[10] = test system: RWP1 cells; test: as above; assay type: cell-based, human; conditions: Fab 10 μg/ml
Experimental: as §3

[11] = target: T1, FZD1 CRD; test: Immunofluorescence of anti-FZD5 Fab binding to CHO cells overexpressing Frizzled CRD; design: key: −: no binding; +: very weak binder; ++: weak binder; +++: good binder; ++++: very good binder
Summary of the method: as §2

B1: Fab-2905: anti-FZD5 Fab with antibody variable region Fv-2905; CDR SEQ ID NOs: 35, 36, 44, 83, 120, 157 (antibody, V domains shown)
VH: EVQLVESGGGLVQPGGSLRLSCAASGFNLSYYYMHWVRQAPGKGLEWVASIYSSYSYTSYADSVKGRFTISADTSKNTAYLQMNSLRAEDTAVYYCARSGYALDYWGQGTLVTVSS
VL: DIQMTQSPSSLSASVGDRVTITCRASQSVSSAVAWYQQKPGKAPKLLIYSASSLYSGVPSRFSGSRSGTDFTLTISSLQPEDFATYYCQQSSWYYGYPFTFGQGTKVEIK
- Median fluorescence, Frizzled CRD overexpressed on CHO cells: FZD1 [1]: 3.75
- Median fluorescence, Frizzled CRD overexpressed on CHO cells: FZD2 [2]: 5.09
- Median fluorescence, Frizzled CRD overexpressed on CHO cells: FZD8 [3]: 8.17
- Immunofluorescence binding, Frizzled CRD overexpressed on CHO cells: FZD3 [4]: −
- Immunofluorescence binding, Frizzled CRD overexpressed on CHO cells: FZD7 [5]: +
- Immunofluorescence binding, Frizzled CRD overexpressed on CHO cells: FZD8 [6]: −
- percent growth inhibition, ASPC-1 10 μg/ml [7]: −10.34%
- percent growth inhibition, HPAFII 2 μg/ml [8]: 0.41%
- percent growth inhibition, HPAFII 10 μg/ml [8]: −12.83%
- percent growth inhibition, PATU8988s 10 μg/ml [9]: −46.23%
- percent growth inhibition, RWP1 10 μg/ml [10]: 41.10%

B2: Fab-2913: anti-FZD5 Fab with antibody variable region Fv-2913; CDR SEQ ID NOs: 35, 36, 52, 91, 128, 165 (antibody, V domains shown)
VH: EVQLVESGGGLVQPGGSLRLSCAASGFNISYSSIHWVRQAPGKGLEWVASIYPYSSSTSYADSVKGRFTISADTSKNTAYLQMNSLRAEDTAVYYCARYGYYGLDYWGQGTLVTVSS
VL: DIQMTQSPSSLSASVGDRVTITCRASQSVSSAVAWYQQKPGKAPKLLIYSASSLYSGVPSRFSGSRSGTDFTLTISSLQPEDFATYYCQQWGVSHYLFTFGQGTKVEIK
- Median fluorescence, Frizzled CRD overexpressed on CHO cells: FZD8 [3]: 8.98
- Immunofluorescence binding, Frizzled CRD overexpressed on CHO cells: FZD1 [11]: ++
- Immunofluorescence binding, Frizzled CRD overexpressed on CHO cells: FZD3 [4]: −
- Immunofluorescence binding, Frizzled CRD overexpressed on CHO cells: FZD7 [5]: ++++
- Immunofluorescence binding, Frizzled CRD overexpressed on CHO cells: FZD8 [6]: −
- percent growth inhibition, ASPC-1 10 μg/ml [7]: −7.73%
- percent growth inhibition, HPAFII 2 μg/ml [8]: −5.59%
- percent growth inhibition, HPAFII 10 μg/ml [8]: −28.52%
- percent growth inhibition, PATU8988s 10 μg/ml [9]: −43.04%
- percent growth inhibition, RWP1 10 μg/ml [10]: 68.29%

B3: Fab-2915: anti-FZD5 Fab with antibody variable region Fv-2915; CDR SEQ ID NOs: 35, 36, 54, 93, 130, 166 (antibody, V domains shown)
VH: EVQLVESGGGLVQPGGSLRLSCAASGFNIYYYSMHWVRQAPGKGLEWVASIYSSYGYTSYADSVKGRFTISADTSKNTAYLQMNSLRAEDTAVYYCARGYHYYPYYSGLDYWGQGTLVTVSS
VL: DIQMTQSPSSLSASVGDRVTITCRASQSVSSAVAWYQQKPGKAPKLLIYSASSLYSGVPSRFSGSRSGTDFTLTISSLQPEDFATYYCQQAYYHSLITFGQGTKVEIK
- Median fluorescence, Frizzled CRD overexpressed on CHO cells: FZD8 [3]: 10.00
- Immunofluorescence binding, Frizzled CRD overexpressed on CHO cells: FZD1 [11]: ++
- Immunofluorescence binding, Frizzled CRD overexpressed on CHO cells: FZD3 [4]: −
- Immunofluorescence binding, Frizzled CRD overexpressed on CHO cells: FZD7 [5]: ++++
- Immunofluorescence binding, Frizzled CRD overexpressed on CHO cells: FZD8 [6]: +
- percent growth inhibition, ASPC-1 10 μg/ml [7]: 4.18%
- percent growth inhibition, HPAFII 2 μg/ml [8]: −16.37%
- percent growth inhibition, HPAFII 10 μg/ml [8]: −31.87%
- percent growth inhibition, PATU8988s 10 μg/ml [9]: −19.02%
- percent growth inhibition, RWP1 10 μg/ml [10]: 45.04%
